Conditions in all cases: chain copies: 2 (homodimer, stated)
In data set [1] the target is T1, NF-kB p65 (RelA) homodimer (UniProt Q04206 Q04206:1-551). Kind of data set: EMSA; p65 homodimer.
The target of data set [2] is T2, NF-kB p50 homodimer (UniProt P19838 P19838:1-433). Kind of data set: EMSA; stated as sub-nM. In general terms: Mobility shift assays separate free from complexed probe on a gel.
The target in data set [3] is T1, NF-kB p65 (RelA) homodimer. Kind of data set: competition; inhibits p65/p65 and p50/p50 equally; nonspecific stickiness.
The target in data set [4] is T2, NF-kB p50 homodimer. The data set is described as above.

These results are taken from patent US20060121489 (Board of Regents, The University of Texas System, published 2006).

T2 sequence (P19838 1-433, one chain of several): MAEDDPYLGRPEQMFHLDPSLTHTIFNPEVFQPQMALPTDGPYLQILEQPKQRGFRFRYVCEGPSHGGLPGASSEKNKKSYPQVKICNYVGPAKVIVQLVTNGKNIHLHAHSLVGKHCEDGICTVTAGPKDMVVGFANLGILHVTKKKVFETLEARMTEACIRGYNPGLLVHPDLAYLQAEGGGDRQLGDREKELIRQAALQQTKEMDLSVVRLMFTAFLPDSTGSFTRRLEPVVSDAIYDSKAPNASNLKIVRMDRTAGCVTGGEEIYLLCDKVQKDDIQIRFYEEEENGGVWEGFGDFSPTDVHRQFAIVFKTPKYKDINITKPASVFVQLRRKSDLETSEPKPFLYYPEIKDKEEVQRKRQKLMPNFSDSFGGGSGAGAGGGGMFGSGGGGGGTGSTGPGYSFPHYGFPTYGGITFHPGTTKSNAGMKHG
T1 sequence (Q04206 whole entry, one chain of several): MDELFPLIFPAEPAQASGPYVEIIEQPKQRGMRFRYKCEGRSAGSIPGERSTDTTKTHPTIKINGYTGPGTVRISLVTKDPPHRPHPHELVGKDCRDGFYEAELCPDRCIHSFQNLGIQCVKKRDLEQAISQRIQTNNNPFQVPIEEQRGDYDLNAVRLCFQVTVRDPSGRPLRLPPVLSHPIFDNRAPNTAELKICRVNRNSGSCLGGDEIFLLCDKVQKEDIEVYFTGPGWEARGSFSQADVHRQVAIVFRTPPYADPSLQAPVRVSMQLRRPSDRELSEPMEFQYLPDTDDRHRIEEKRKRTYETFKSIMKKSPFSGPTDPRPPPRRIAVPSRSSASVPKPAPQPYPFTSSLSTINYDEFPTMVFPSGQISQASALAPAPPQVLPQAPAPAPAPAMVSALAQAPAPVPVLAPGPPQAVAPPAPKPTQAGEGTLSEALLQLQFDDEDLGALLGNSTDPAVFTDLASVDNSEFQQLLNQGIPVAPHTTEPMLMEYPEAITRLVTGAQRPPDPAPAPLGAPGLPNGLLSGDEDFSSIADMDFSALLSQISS

B1: XBY-6 (dsDNA)
DNA 1: CCAGGAGATTCCAC
DNA 2: GTGGAATCTCCTGG
modifications: 6 phosphorodithioate (S2) linkages: 5'-…2TS2CCAC-3' / 3'-GGS2TCCS2TCS2TAAGGS2TG-5'
Broadly, the Kd is the concentration at which binding is half-saturated. The low end stands for a tighter complex, the high end for a looser complex. Turning to B1, the Kd in data set [1] was 1.4 nM; in data set [2] it was under 1 nM.

B2: CK-1 42-mer full phosphorothioate (dsDNA)
DNA 1: CCAGGAGATTCCACCCAGGAGATTCCACCCAGGAGATTCCAC
DNA 2: GTGGAATCTCCTGGGTGGAATCTCCTGGGTGGAATCTCCTGG
modifications: full PS
Turning to B2, the binding result in data set [3] and in data set [4] was “binds” each time.
